Residue numbers refer to the chain shown, from its start. Several values for one entry are separate records, joined by “and”; a condition that tells them apart may be missing. Identical values can stand only once.
T1: IL-18 receptor (IL-18Rαβ) on cells (UniProt Q13478 19-541; O95256 20-599, limits assumed)
T1 sequence (looked up) 1: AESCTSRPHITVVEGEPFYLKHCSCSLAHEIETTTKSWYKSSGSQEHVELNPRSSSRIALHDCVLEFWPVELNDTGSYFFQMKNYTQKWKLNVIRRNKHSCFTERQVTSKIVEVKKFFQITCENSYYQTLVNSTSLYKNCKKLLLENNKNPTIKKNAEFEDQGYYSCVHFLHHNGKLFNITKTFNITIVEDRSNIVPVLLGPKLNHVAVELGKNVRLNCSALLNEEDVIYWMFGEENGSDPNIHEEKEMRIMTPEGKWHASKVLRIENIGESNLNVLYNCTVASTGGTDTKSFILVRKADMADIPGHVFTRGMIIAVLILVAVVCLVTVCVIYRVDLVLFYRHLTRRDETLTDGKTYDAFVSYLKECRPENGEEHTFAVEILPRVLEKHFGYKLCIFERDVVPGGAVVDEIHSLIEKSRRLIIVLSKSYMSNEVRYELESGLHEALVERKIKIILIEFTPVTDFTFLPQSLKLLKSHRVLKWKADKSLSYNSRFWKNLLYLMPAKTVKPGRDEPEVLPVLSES
T1 sequence (looked up) 2: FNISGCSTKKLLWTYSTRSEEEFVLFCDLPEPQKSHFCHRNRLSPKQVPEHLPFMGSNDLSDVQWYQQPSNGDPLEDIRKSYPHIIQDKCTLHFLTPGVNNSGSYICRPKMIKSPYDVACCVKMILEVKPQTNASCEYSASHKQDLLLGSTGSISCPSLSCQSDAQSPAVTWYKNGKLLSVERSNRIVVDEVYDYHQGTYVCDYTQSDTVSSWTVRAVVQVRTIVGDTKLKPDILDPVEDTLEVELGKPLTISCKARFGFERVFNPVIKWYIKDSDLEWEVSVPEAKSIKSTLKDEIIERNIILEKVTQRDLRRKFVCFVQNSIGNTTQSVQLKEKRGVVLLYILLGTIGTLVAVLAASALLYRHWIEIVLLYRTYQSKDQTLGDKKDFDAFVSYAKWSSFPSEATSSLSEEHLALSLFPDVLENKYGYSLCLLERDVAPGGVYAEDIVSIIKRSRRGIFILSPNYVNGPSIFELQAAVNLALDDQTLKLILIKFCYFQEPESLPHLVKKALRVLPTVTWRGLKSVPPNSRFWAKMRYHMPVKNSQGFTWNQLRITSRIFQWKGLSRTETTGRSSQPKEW

B1: SEQ ID NO 34 (ligand)
chain: YFGKLKSKLSVIRNLNDQVLFIDQGNRPLFEDMTDSDCRDNAPRTIFIISMYADAQPRGMAVTISVKCEKISTLSCENKIISFKEMNPPDNIKDTKSDIIFFQRSVPGHDNKMQFESSSYEGYFLACEKERDLFKLILKKEDELGDRSIMFTVQNED
B2: C160 (ligand)
chain: B1 chain with K6E, V11I, C38A, A55S, C76A, D110A, C127A
B3: SEQ ID NO 4 (ligand)
chain: B1 chain with C38A, A55S, C68A, M86C
B4: SEQ ID NO 42 (ligand)
chain: B1 chain with T63A
B5: C167 (ligand)
chain: B1 chain with K6E, V11I, C38A, A53K, A55S, C76A, S105I, C127A
B6: C168 (ligand)
chain: B1 chain with K6E, V11I, C38A, A53K, A55S, C76A, S105K, C127A
B7: C166 (ligand)
chain: B1 chain with K6E, V11I, C38A, A53K, A55T, C76A, C127A
B8: SEQ ID NO 59 (ligand)
chain: B1 chain with C38A, A55S
B9: SEQ ID NO 6 (ligand)
chain: B1 chain with V11I, C38A, A55S, T63A, C68A, C76A, D98C, C127A
B10: C149 (ligand)
chain: B1 chain with K6E, V11I, E31A, C38A, A55S, C76A, C127A
B11: C143 (ligand)
chain: B1 chain with K6E, V11I, C38A, A55S, C76A, C127A
B12: SEQ ID NO 57 (ligand)
chain: B1 chain with C38S, A55S
B13: C158 (ligand)
chain: B1 chain with K6E, V11I, C38A, A55S, C76A, G108A, C127A
B14: C161 (ligand)
chain: B1 chain with K6E, K8R, V11I, C38A, A53K, A55S, C76A, Q103E, C127A
B15: C154 (ligand)
chain: B1 chain with K6E, V11I, E31A, D37A, C38A, A55S, C76A, C127A
B16: C147 (ligand)
chain: B1 chain with K6E, V11I, C38A, D54A, A55S, C76A, C127A
B17: C151 (ligand)
chain: B1 chain with K6E, V11I, D35A, C38A, A55S, C76A, C127A
B18: SEQ ID NO 60 (ligand)
chain: B1 chain with C38Q, A55S
B19: C165 (ligand)
chain: B1 chain with K6E, V11I, C38A, A53K, A55R, C76A, C127A
B20: C148 (ligand)
chain: B1 chain with F2A, K6E, V11I, C38A, A55S, C76A, C127A
B21: SEQ ID NO 9 (ligand)
chain: B1 chain with C38A, A55S, C68A, D98C
B22: C157 (ligand)
chain: B1 chain with K6E, V11I, C38A, A55S, C76A, C127A, D132A
B23: C153 (ligand)
chain: B1 chain with K6E, V11I, D37A, C38A, A55S, C76A, C127A
B24: C144 (ligand)
chain: B1 chain with K6E, V11I, C38A, A55S, T63A, C76A, C127A
B25: C145 (ligand)
chain: B1 chain with K6E, V11I, C38A, C76A, C127A
B26: C156 (ligand)
chain: B1 chain with K6E, V11I, C38A, N41A, A55S, C76A, C127A
B27: C159 (ligand)
chain: B1 chain with K6E, V11I, C38A, A55S, C76A, H109A, C127A
B28: C163 (ligand)
chain: B1 chain with K6E, V11I, C38A, A53K, A55S, C76A, Q103K, C127A
B29: SEQ ID NO 50 (ligand)
chain: B1 chain with A55S, T63A
B30: C150 (ligand)
chain: B1 chain with K6E, V11I, T34A, C38A, A55S, C76A, C127A
B31: C155 (ligand)
chain: B1 chain with K6E, V11I, C38A, D40A, A55S, C76A, C127A
B32: C164 (ligand)
chain: B1 chain with K6E, V11I, C38A, A53K, A55H, C76A, C127A
B33: SEQ ID NO 5 (ligand)
chain: B1 chain with V11I, C38A, A55S, T63A, C68A, C76A, M86C, C127A
B34: SEQ ID NO 62 (ligand)
chain: B1 chain with C38A, A55S, C127A
B35: C152 (ligand)
chain: B1 chain with K6E, V11I, S36A, C38A, A55S, C76A, C127A
B36: C146 (ligand)
chain: B1 chain with K6E, V11I, C38A, M51G, A55S, C76A, C127A
B37: C162 (ligand)
chain: B1 chain with K6E, K8E, V11I, C38A, A53K, A55S, C76A, Q103R, C127A
B38: SEQ ID NO 54 (ligand)
chain: B1 chain with C38S, A55S, C68S, K70C, C76S, C127S
B39: C316 (ligand)
chain: MAAEPVEDNSINFVAMKFIDNTLYFIAEDDENLESDSGRVANLVGYFGKLKSKLSIIRNLNDQVLFIDQGNRPLFEDMTDSDARDNAPRTIFIISMYADSQPRGMAVAISVKCEKISTLSAENKIISFKEMNPPDNIKDTKSDIIFFQRSVPGHDNKMQFESSSYEGYFLAAEKERDLFKLILKKEDELGDRSIMFTVQNED

Legend:
Assay in all cases: cell-based or functional assay
[1] = molecular target: T1, IL-18 receptor (IL-18Rαβ) on cells
[2] = molecular target: T1, IL-18 receptor (IL-18Rαβ) on cells; remark: listed apart in the source
[3] = molecular target: T1, IL-18 receptor (IL-18Rαβ) on cells; remark: listed apart in the source

| Binder | HEK-Blue IL-18R reporter EC50 [1] | EC50 (IFNγ stimulation, NK92) [2] | IFNγ release NK-92 assay EC50 [3] |
| --- | --- | --- | --- |
| B1 | 0.273 nM | 0.824 nM |  |
| B2 | 0.00202 nM | 0.028 nM |  |
| B3 |  | 0.022 nM |  |
| B4 | 0.00079 nM | 0.144 nM |  |
| B5 | 0.00537 nM | 0.103 nM |  |
| B6 | 0.00773 nM | 0.098 nM |  |
| B7 | 0.00473 nM | 0.098 nM |  |
| B8 | 0.000268 nM | 0.015 nM |  |
| B9 |  | 1.37 nM |  |
| B10 | 0.0066 nM | 0.187 nM |  |
| B11 | 0.00098 nM | 0.138 nM |  |
| B12 | 0.00086 nM and 0.00053 nM | 0.045 nM |  |
| B13 | 0.0156 nM | 0.073 nM |  |
| B14 | 0.00201 nM | 0.057 nM |  |
| B15 | 0.0119 nM | 0.062 nM |  |
| B16 | 0.001 nM | 0.079 nM |  |
| B17 | 0.0131 nM | 0.061 nM |  |
| B18 | 0.000203 nM | 0.006 nM |  |
| B19 | 0.00191 nM | 0.176 nM |  |
| B20 | 0.00728 nM | 0.256 nM |  |

| Binder | HEK-Blue IL-18R reporter EC50 [1] | EC50 (IFNγ stimulation, NK92) [2] | IFNγ release NK-92 assay EC50 [3] |
| --- | --- | --- | --- |
| B21 |  | 0.069 nM |  |
| B22 | 0.00195 nM | 0.056 nM |  |
| B23 | 0.0141 nM | 0.175 nM |  |
| B24 | 0.00017 nM | 0.012 nM |  |
| B25 | 0.00363 nM | 0.087 nM |  |
| B26 | 0.0117 nM | 0.558 nM |  |
| B27 | 0.0195 nM | 0.123 nM |  |
| B28 | 0.0015 nM | 0.093 nM |  |
| B29 | 0.00177 nM | 0.0268 nM |  |
| B30 | 0.0007 nM | 0.015 nM |  |
| B31 | 0.00052 nM | 0.067 nM |  |
| B32 | 0.00314 nM | 0.414 nM |  |
| B33 |  | 0.075 nM |  |
| B34 | 0.00017 nM | 0.026 nM |  |
| B35 | 0.00025 nM | 0.033 nM |  |
| B36 | 0.0008 nM | 0.037 nM |  |
| B37 | 0.0023 nM | 0.061 nM |  |
| B38 | 0.00912 nM | 0.962 nM |  |
| B39 |  |  | 532 nM |

— patent publication US20250197467A1 (BRIGHT PEAK THERAPEUTICS, published 2025)
